Source: patent US7795009

System: prothrombin

Factor Xa was tested, and the “sensitized acceptor emission of the thrombin beacon as a function of time” value was “This conversion resulted in a time-dependent increase of beacon signal”.
